Test results as given in the supplement of paper PMC9170038.

Each sequence was assayed on MS2 coat protein (assay: apparent KD of MS2 coat protein; higher = weaker reporter binding). Settings: Eterna round: R107; input ligand: none.
Method in brief: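 In 100 mM Tris-HCl pH 7.5 with 80 mM KCl and 4 mM MgCl2, and without or with constant ligand, SNAP-549-labelled MS2 coat protein was titrated in twofold steps from 0.7 or 1.5 nM to 3 µM. Per-step times went from 0.8–1.5 h down to 10–20 min. The RNA switches were transcribed on-chip from Illumina sequencing clusters, and apparent KD is the per-design median of normalised cluster binding-curve fits.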

Sequence	apparent KD of MS2 coat protein [nM]
AAUAAUAACUGAAGGAGCGUCUAUAUUACAUGAGGAUCACCCAUGUUUAUAUGGUAUUAUAGACAGGUAGGUCGCAGAUUUUUUA [JR_SSArginiB_Sub016]	16.6
UUGCAGAUCGGAAAGGUCCUGCUGUUCGAAGGAGCGGUAAAAGUACCAGGUAGGUCGCGAACAUGAGGAUCACCCAUGUUUGCAA [Usmaenbi]	22.3
AUGUCGUUGAAUAUAGCGGCUUGGUGUGAUACCAGAAUGAUCUAAUUCCCUUGGCAGCAUUACAUGAGGAUCACCCAUGUUCCAG [SSTheo A #21]	39.1
AACAUGAGGAUCACCCAUGUGUCCUCGAAACGAGGACCGGUACGGCCGCCACUCGAGCUAUGUUGACGAAAAGUCAGCAUAGCAA [Mat - Exclusion - Trytophan A - D13]	276
ACACAUGAGGAUCACCCAUGUAAAGUUGAAGGAGCGAUCAUUAGGUCAGGUAGGUCGCAGCACAUGAGGAUCACCCAUGUCGUGA [DOUBLE!!! :-D #2]	96.1
GUCGCUGAGGGAAGGAGCGUGAAGACAUGAGGAUCACCCAUGUAGAGGCGCCGAAGGCGUUCGCAGGUAGGUCGCCCUCAGUGAC [#1 Same State - Arginine B Attempt #22 (HarryS)]	19.3
GGUGGCGGGACUGAUACCAGCCACCACCGAUAGACCACAUGAGGAUCACCCAUGUUGGGUGGCCCUUGGCAGCAGUCUUGCGGCG [#1 Same State - Theophylline B Attempt #15 (HarryS)]	527
GGGCCCGGCCGAAAGGCCGGGCCCGCUGAAGGAGCGGGAAAUAACCCAGGUAGGUCGCAGAGAUCCACAUGAGGAUCACCCAUGU [#26 Exclusion - Arginine A]	26.5
UAGACGGCCGGAAGGAGCGGUACAUGAGGAUCACCCAUGUACUUCUGGGCAUCCGUAGUGUGCCAGGUAGGUCGCCGGUUGCGGG [XArg-B20]	14.4
CUAAGAGCGGCGGCCGCCACUGGUAACCAAGAGGCGGAGCCUCUGACAUGAGGAUCACCCAUGUUCAGGACCGGGUCGUCUUAGA [#07 Same State - Tryptophan B]	12.2
GGAUAGGACAGAAGGAGCGACAUGGCAGAAACUGCAAUCCUCCUACACGAGGAUCACCCGUGUCAGGUAGGUCGCUGUCCUAUCG [ArgXB 12 #Zipper #MS2Left #StaticStem #Blueprint]	24.7
CUAUCCUUGCCGGAUGAAGGACACUGAGAAGGAGCGCGGUAAUCCGCAGGUAGGUCGCUCAGGAGUACAUGAGGAUCACCCAUGU [Xeonrave]	20.8
ACGAACGCACCUGAGGAUCACCCGGGUGAUACCAGCCUGGAAACAGGCCCUUGGCAGCACCUAAAAUAAAGGUAACGUUCGAAUA [TheoAX9 #MicroSwitchBubble #AlternativeMS2]	335
CACGGAUGAGUGGAUCACCCUCAUAAUAACCGAGGACCGGUACGGCCGCCACUCGAAAACCGUGACCUGUACGAAAAGUGCAGGA	33.5
ACGGGCAUGGCGGCCGCCACUGGUUGGCGUGCGGAUGAGGGAACAUGAGGAUCACCCAUGUUGGUUAGGACCGGGCUGGCGUCGA [kkymullin]	15.4
UCACAUGAGGAUCACCCAUGUACAGGCGAUACCAGCCGUACAUUGGGCCCUUGGCAGCGCACCGAGGACUUUUUAAGCAUCUCGG [Diatbeen]	19.8
AGCAGCUCGAAAGAGUUGCACUCAUGUGAAGGAGCGCCCGUUAGGGCAGGUAGGUCGCACAUGAGGAUCACCCAUGUACCUUCUA [ArgAX 20 #OpenEnded #MS2Late]	174
UUGUUGUUUGGAAGGAGCGUGUAUGAGUUAGAACAUGAGGAUCACCCAUGUUGGAUGAUAGCACAGGUAGGUCGCCGGGUGGUGG [11.Y]	24.1
CUAUAUUAUAGAAGGAGCGUCGAAAAUGGGUAAACAUGAGGAUCACCCAUGUAAAGGGAACGACAGGUAGGUCGCUAUAAUAUAG [AstromonsSSArgB#13]	220
ACAUGAGGAUCACCCAUGUUUGUUGUUCCUCGAGGACCGGUACGGCCGCCACUCGAACGAGUGGCGCGCGCGCGCGCGCGCGCGC [aMa]	13.3
GCGAUGGAGCGAAGGAGCGUGCUAGUACAUGAGGAUCACCCAUGUGAGUCGCAUCGCUAAGCACAGGUAGGUCGCGCUCCAUCGC [EAB NP+V+V2 #9]	94.2

Same assay, conditions: Eterna round: R107; input ligand: theophylline 20 uM

Sequence	apparent KD of MS2 coat protein [nM]
AAUAAAUCGCCUGAUACCAGCGCUGGCGGACAUGAGGAUCACCCAUGUGUUACAGGCGGACGCCCUUGGCAGCGGAGCGGGAUCU [U-Shape]	21.4
GUGGAGACAUGAGAUACCAGUCUCUUUAACAUGAGGAUCACCCAUGUAAUGCUCCUCGGAGACCCUUGGCAGCUCAGUAUGAUGA [#09 Exclusion-TheophyllineB]	71.7
GCACAAGAUGGAAGGAGCGCUGGUAAAGGUCACAUGAGGAUCACCCAUGUGCUCCUUGCCGAGCAGGUAGGUCGCCAUCUUGUGC [SSAB NP+V+V2 #3]	16.4
AAUAAUAACUGAAGGAGCGUCUAUAUUACAUGAGGAUCACCCAUGUUUAUAUGGUAUUAUAGACAGGUAGGUCGCAGAUUUUUUA [JR_SSArginiB_Sub016]	22.1
UUGCAGAUCGGAAAGGUCCUGCUGUUCGAAGGAGCGGUAAAAGUACCAGGUAGGUCGCGAACAUGAGGAUCACCCAUGUUUGCAA [Usmaenbi]	28.2
AUACCUAAUGUUACAUUUACCUUAUCAGAUACCAGACUUUACGUUGUCCCUUGGCAGCUGUAUCACAUGAGGAUCACCCAUGUUG [JR_SSTheophyA_Sub010]	19.2
AUGUCGUUGAAUAUAGCGGCUUGGUGUGAUACCAGAAUGAUCUAAUUCCCUUGGCAGCAUUACAUGAGGAUCACCCAUGUUCCAG [SSTheo A #21]	47.4
CCCAUACAUGAGGAUCACCCAUGUGUUGAUACCAGCAUAUGUAGAUGCCCUUGGCAGCAAGCUUGGGUCACUGGAAAACAUCUAA [theeternabot_sameState_MS2_Theo_A_38]	27.4
AACAUGAGGAUCACCCAUGUGUCCUCGAAACGAGGACCGGUACGGCCGCCACUCGAGCUAUGUUGACGAAAAGUCAGCAUAGCAA [Mat - Exclusion - Trytophan A - D13]	316
ACACAUGAGGAUCACCCAUGUAAAGUUGAAGGAGCGAUCAUUAGGUCAGGUAGGUCGCAGCACAUGAGGAUCACCCAUGUCGUGA [DOUBLE!!! :-D #2]	85.5
GUCGCUGAGGGAAGGAGCGUGAAGACAUGAGGAUCACCCAUGUAGAGGCGCCGAAGGCGUUCGCAGGUAGGUCGCCCUCAGUGAC [#1 Same State - Arginine B Attempt #22 (HarryS)]	23.2
GGUGGCGGGACUGAUACCAGCCACCACCGAUAGACCACAUGAGGAUCACCCAUGUUGGGUGGCCCUUGGCAGCAGUCUUGCGGCG [#1 Same State - Theophylline B Attempt #15 (HarryS)]	491
GCUCACAUGAGGAUCACCCAUGUACGUCCGCGAGGACCGGUACGGCCGCCACUCGUGUUAGCUUCAAACUUGUUAGUGUUAAACA [Atleerge]	53.4
AAUGGCCGUACCGGAAGGGUGAUCCUCAAACGAGGACCGGUACGGCCGCCACUCGAUAACAUGAGGAUCACCCAUGUAAUAAUAA [|T'-M'-Trp-Ms2|_Design13]	481
GGGCCCGGCCGAAAGGCCGGGCCCGCUGAAGGAGCGGGAAAUAACCCAGGUAGGUCGCAGAGAUCCACAUGAGGAUCACCCAUGU [#26 Exclusion - Arginine A]	64.1
AACCGAGGCUAUCCUCUAAGAAUAUGUGAUACCAGAAUAAUUUUAUUCCCUUGGCAGCAUGACAUGAGGAUCACCCAUGUGUCUU [SSTheo A #7]	136
UAGACGGCCGGAAGGAGCGGUACAUGAGGAUCACCCAUGUACUUCUGGGCAUCCGUAGUGUGCCAGGUAGGUCGCCGGUUGCGGG [XArg-B20]	32.4
CAACUGGCAGAGGAUACCAGAUCAUUUAGAAACAUGAGGAUCACCCAUGUCGUAAGGAUAAUCCCUUGGCAGCCUAUCCGCCUCG [theeternabot_sameState_MS2_Theo_B_48]	16.6
CUAAGAGCGGCGGCCGCCACUGGUAACCAAGAGGCGGAGCCUCUGACAUGAGGAUCACCCAUGUUCAGGACCGGGUCGUCUUAGA [#07 Same State - Tryptophan B]	13.6
